Numbering of substitutions follows the chain as printed.

We go through 2 molecules from PMC9896810, “Crk proteins activate the Rap1 guanine nucleotide exchange factor C3G by segregated adaptor-dependent and -independent mechanisms” (Cell Communication and Signaling : CCS, 2023).

In one experiment the target is T1, C3G-PAAA (human, UniProt Q13905-1 4-1077, P453A | P454A | L456A | P457A | K459A | P540A | P541A | L543A | P544A | K546A | …).
T1 construct: human C3G isoform a, residues 4-1077; only P1 kept, P2, P3 and P4 mutated to Ala; source: E. coli BL21 (DE3), purified (IMAC, TEV digestion, reversed IMAC, SEC); not shown: His, N-terminal, cleaved; Halo, N-terminal, cleaved
T1 sequence (looked up): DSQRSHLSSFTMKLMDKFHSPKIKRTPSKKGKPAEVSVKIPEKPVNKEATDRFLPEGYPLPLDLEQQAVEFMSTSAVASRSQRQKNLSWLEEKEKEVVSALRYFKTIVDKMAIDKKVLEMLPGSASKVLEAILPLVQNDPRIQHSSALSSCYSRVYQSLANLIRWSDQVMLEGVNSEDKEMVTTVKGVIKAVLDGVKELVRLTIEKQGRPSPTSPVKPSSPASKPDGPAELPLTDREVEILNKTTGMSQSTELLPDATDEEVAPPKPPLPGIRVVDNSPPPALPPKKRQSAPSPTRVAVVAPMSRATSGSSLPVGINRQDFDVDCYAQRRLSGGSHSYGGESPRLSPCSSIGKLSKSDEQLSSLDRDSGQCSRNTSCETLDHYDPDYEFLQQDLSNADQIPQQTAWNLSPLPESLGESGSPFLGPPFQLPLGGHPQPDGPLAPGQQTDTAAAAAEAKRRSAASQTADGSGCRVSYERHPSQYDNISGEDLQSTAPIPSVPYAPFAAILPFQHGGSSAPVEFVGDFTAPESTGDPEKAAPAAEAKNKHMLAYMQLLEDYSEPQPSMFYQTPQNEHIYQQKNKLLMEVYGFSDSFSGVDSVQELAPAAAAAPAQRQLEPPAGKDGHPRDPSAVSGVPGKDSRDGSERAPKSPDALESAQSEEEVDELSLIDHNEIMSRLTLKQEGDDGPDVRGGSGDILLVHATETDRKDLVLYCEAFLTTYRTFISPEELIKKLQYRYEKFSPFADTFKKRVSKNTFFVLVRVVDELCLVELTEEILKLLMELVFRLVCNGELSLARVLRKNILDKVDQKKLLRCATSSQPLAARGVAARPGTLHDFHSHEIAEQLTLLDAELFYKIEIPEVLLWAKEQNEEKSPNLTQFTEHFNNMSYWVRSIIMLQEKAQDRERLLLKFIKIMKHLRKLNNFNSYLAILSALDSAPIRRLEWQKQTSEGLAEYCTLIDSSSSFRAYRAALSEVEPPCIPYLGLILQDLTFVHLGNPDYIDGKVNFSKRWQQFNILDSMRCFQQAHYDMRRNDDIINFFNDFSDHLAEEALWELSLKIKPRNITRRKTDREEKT
Nature of the experiment: ITC; single-PRM mutant of C3G in the cell titrated with CrkL or CrkL-SH3N, 25 °C, 300 mM NaCl, pH 7.5; SEDPHAT, 1:1 heteroassociation model; N is the competent fraction of C3G. Conditions: both partners purified. (In general: Isothermal titration calorimetry measures the heat released or taken up as one component is titrated into another.)

Experiment [1] concerns the target T2, Src-phosphorylated C3G-AAPA (human, UniProt Q13905-1 4-1077, P283A | P284A | L286 | P287 | P289A | P453A | P454A | L456A | P457A | K459A | …, phosphotyrosines from phosphorylation in vitro with Src (sites not given)).
T2 construct: human C3G isoform a, residues 4-1077; only P3 kept, P1, P2 and P4 mutated to Ala; also called pC3G-AAPA; source: E. coli BL21 (DE3), purified; phosphorylated in vitro with the recombinant kinase domain of Src, then SEC; not shown: His, N-terminal, cleaved; Halo, N-terminal, cleaved
T2 sequence (looked up): T1 sequence (looked up) with P280A, P281A, L283A, P284A, K286A, A537P, A538P, A540L, A541P, A543K
Described as above. The conditions noted are these: both partners purified.

B1: CrkL (full-length) (natural protein, human, UniProt P46109 1-303, looked up)
chain: MSSARFDSSDRSAWYMGPVSRQEAQTRLQGQRHGMFLVRDSSTCPGDYVLSVSENSRVSHYIINSLPNRRFKIGDQEFDHLPALLEFYKIHYLDTTTLIEPAPRYPSPPMGSVSAPNLPTAEDNLEYVRTLYDFPGNDAEDLPFKKGEILVIIEKPEEQWWSARNKDGRVGMIPVPYVEKLVRSSPHGKHGNRNSNSYGIPEPAHAYAQPQTTTPLPAVSGSPGAAITPLPSTQNGPVFAKAIQKRVPCAYDKTALALEVGDIVKVTRMNINGQWEGEVNGRKGLFPFTHVKIFDPQNPDENE
notes: human CrkL, residues 1-303, in pETEV15b; also called Crk-like protein; source: E. coli BL21 (DE3), purified (IMAC, TEV digestion, SEC); not shown: His, N-terminal, cleaved
For B1, in the experiment with C3G-PAAA, the Kd came out at 900 nM and the “stoichiometry N” value came out at 0.86.

B2: CrkL-SH3N (domain or fragment, human, UniProt P46109 125-182, looked up)
chain: LEYVRTLYDFPGNDAEDLPFKKGEILVIIEKPEEQWWSARNKDGRVGMIPVPYVEKLV
notes: human CrkL, SH3N domain, residues 125-182, in pETEV15b; source: E. coli BL21 (DE3), purified (IMAC, TEV digestion, SEC); not shown: His, N-terminal, cleaved
With B2, in experiment [1], the Kd was 2100 nM and the “stoichiometry N” value is 0.08.

One may read the Kd as the free concentration of one partner at which half of the binding sites on the other are occupied at equilibrium, for simple one-to-one binding. A lower Kd goes with a tighter complex. In general, stoichiometry N refers to a count of units in the complex or per binding partner.
